# Data reported in patent US20240101635A1 (AKSTON BIOSCIENCES, published 2024).
# Numbering of substitutions follows the chain as printed. Read-outs that look alike come from different tables or passages of the source.
# B1: insulin-Fc fusion protein of SEQ ID NO: 106 (Fc fusion)
# chain: FVNQHLCGSDLVEALYLVCGERGFFYTDPTGGGPRRGIVEQCCHSICSLYQLENYCNGGGGSGGGGGEGPKCPVPEIPGAPSVFIFPPKPKDTLSISRTPEVTCLVVDLGPDDSNVQITWFVDNTEMHTAKTRPREEQFNSTYRVVSVLPILHQDWLKGKEFKCKVNSKSLPSAMERTISKAKGQPHEPQVYVLPPTQEELSENKVSVTCLIKGFHPPDIAVEWEITGQPEPENNYQTTPPQLDSDGTYFLYSRLSVDRSHWQRGNTYTCSVSHEALHSHHTQKSLTQSPG
# notes: homodimer
# B2: insulin-Fc fusion protein of SEQ ID NO: 38 (Fc fusion)
# chain: FVNQHLCGSHLVEALELVCGERGFHYGGGGGGSGGGGGIVEQCCTSTCSLDQLENYCGGGGGQGGGGQGGGGQGGGGGDCPKCPPPEMLGGPSIFIFPPKPKDTLSISRTPEVTCLVVDLGPDDSDVQITWFVDNTQVYTAKTSPREEQFNSTYRVVSVLPILHQDWLKGKEFKCKVNSKSLPSPIERTISKDKGQPHEPQVYVLPPAQEELSRNKVSVTCLIEGFYPSDIAVEWEITGQPEPENNYRTTPPQLDSDGTYFLYSRLSVDRSRWQRGNTYTCSVSHEALHSHHTQKSLTQSPG
# notes: homodimer
# B3: insulin-Fc fusion protein of SEQ ID NO: 40 (Fc fusion)
# chain: B2 chain with E16A, N151S
# notes: homodimer
# B4: insulin-Fc fusion protein of SEQ ID NO: 32 (Fc fusion)
# chain: FVNQHLCGSHLVEALELVCGERGFHYGGGGGGSGGGGGIVEQCCTSTCSLDQLENYCGGGGGQGGGGQGGGGQGGGGGDCPKCPAPEMLGGPSVFIFPPKPKDTLLIARTPEVTCVVVDLDPEDPEVQISWFVDGKQMQTAKTQPREEQFNGTYRVVSVLPIGHQDWLKGKQFTCKVNNKALPSPIERTISKARGQAHQPSVYVLPPSREELSKNTVSLTCLIKDFFPPDIDVEWQSNGQQEPESKYRTTPPQLDEDGSYFLYSKLSVDKSRWQRGDTFICAVMHEALHNHYTQESLSHSPG
# notes: homodimer; also called 218d
# Legend:
# human insulin receptor [1] = target: T1, human insulin receptor (human, UniProt P06213 28-1382); assay: competition with biotinylated RHI on IM-9 cells, flow cytometry, 4 C
# T1 construct: whole, on cells; Endogenous receptor on IM-9 cells; also called IR
# T1 sequence (P06213 28-1382): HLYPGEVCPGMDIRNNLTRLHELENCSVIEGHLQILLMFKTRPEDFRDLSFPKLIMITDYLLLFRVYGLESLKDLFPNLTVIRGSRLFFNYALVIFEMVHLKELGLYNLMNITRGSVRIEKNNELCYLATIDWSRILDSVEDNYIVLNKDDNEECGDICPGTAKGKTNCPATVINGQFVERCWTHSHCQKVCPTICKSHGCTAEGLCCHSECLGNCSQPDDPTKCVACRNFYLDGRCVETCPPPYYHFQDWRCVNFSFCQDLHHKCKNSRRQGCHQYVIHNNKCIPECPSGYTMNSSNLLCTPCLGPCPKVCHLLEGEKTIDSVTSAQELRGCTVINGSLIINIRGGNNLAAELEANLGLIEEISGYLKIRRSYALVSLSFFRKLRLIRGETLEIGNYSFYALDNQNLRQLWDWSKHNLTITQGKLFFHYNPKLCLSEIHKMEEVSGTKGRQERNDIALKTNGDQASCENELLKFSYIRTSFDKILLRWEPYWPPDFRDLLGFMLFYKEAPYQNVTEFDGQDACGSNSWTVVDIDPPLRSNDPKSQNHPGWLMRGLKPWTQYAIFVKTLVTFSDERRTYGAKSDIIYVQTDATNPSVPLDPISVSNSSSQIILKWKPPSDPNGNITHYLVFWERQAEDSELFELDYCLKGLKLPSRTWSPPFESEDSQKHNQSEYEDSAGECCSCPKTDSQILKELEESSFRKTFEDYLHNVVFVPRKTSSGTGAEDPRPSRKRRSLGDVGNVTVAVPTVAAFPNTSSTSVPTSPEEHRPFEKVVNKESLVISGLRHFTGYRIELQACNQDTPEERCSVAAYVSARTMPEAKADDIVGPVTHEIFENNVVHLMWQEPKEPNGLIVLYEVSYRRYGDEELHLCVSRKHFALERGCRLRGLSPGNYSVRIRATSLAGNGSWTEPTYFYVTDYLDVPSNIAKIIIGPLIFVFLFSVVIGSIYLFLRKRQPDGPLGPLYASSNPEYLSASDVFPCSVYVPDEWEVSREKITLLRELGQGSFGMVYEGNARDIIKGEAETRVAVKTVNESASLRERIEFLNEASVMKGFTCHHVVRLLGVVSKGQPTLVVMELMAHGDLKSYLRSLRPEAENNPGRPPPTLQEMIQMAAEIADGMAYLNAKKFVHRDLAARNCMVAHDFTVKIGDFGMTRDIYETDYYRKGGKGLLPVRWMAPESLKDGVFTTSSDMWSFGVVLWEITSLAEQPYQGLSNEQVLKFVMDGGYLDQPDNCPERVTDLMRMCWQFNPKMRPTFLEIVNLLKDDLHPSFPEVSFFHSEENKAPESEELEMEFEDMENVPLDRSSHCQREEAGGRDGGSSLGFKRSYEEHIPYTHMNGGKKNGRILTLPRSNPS
# Method: (§1) 40 μL of an IM-9 cell suspension (8×10⁶ cells/mL) was then added to each well by multichannel pipette, mixed again gently and incubated on ice for 30 min to allow competitive binding on the insulin receptor on IM-9 cells. Cells were then washed twice with 275 μL of ice-cold FACS wash buffer (HBSS/2 mM EDTA/0.1% Na-azide+0.5% horse serum) by centrifuging the V-bottom plate at 3000 rpm for 3 min and aspirating the supernatant. Cells were then resuspended in 40 μL of FACS staining medium containing 1:100 diluted Streptavidin-PE (Life Technologies) for 20 min on ice. Cells were then washed once with 275 μL of ice-cold FACS buffer and finally fixed with 3% paraformaldehyde for 10 min at room temp. Cells were then washed once with 275 μL of ice-cold FACS buffer and resuspended in 250 μl of FACS buffer for analysis.
# (§2) The V-bottom plates containing cells were then analyzed on a Guava 8-HT flow cytometer (Millipore). Biotinylated-RHI binding to insulin receptor was quantitated by the median fluorescence intensity (MFI) of the cells on the FACS FL-2 channel for each concentration of the test compound. Control wells were labeled only with biotinylated-RHI and were used to calculate the percent (%) inhibition resulting from each test compound concentration. The % inhibition by test compounds of biotinylated-RHI binding on IM-9 cells was plotted against log concentrations of the test compound, and the resulting IC50 values were calculated using GraphPad Prism (GraphPad Software, La Jolla, CA) for the test compounds. Lower IC50 values of the test compound therefore indicate greater levels of biotinylated-RHI inhibition at lower concentrations indicating stronger binding of the insulin-Fc fusion protein to the insulin receptor. A control compound, such as unlabeled recombinant human insulin (RHI) was also used as an internal standard to generate an RHI IC50 against which a given compound IC50 could be ratioed (IC50(compound)/IC50(RHI)). Lower IC50 ratios have more similar binding to RHI (stronger binding to insulin receptor), while higher IC50 ratios have weaker binding to the insulin receptor relative to RHI.
# human insulin receptor [2] = target: T1, human insulin receptor; assay: as above; remark: listed apart in the source
# Method: as §1, §2
# [3] = target: T2, biotinylated recombinant human Fc(gamma) receptor I (human, UniProt P12314 16-288, biotinylated (site not stated)); assay: ELISA, fusion protein coated, biotinylated rhFc(gamma)RI in solution, pH 7.4
# T2 construct: Bought reagent, used as surrogate for canine/feline Fc(gamma)RI; also called rhFc(gamma) receptor I; Fc(gamma)RI
# T2 sequence (P12314 16-288 limits assumed): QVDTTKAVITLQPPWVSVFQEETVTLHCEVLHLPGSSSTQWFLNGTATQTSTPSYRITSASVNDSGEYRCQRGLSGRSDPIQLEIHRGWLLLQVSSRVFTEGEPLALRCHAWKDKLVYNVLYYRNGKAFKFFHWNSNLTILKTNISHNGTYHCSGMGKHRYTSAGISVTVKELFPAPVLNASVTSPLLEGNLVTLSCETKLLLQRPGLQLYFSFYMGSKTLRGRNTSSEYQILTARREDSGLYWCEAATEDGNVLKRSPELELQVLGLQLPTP
# Method: (§3) The binding of insulin-Fc fusion proteins to the Fc(gamma) receptor I at pH 7.4 was conducted using an ELISA assay as follows. Since neither canine nor feline Fc(gamma) receptor I was not commercially available, human Fc(gamma) receptor I (i.e., rhFc(gamma) receptor I) was used as a surrogate mammalian receptor. Insulin-Fc compounds were diluted to 10 μg/mL in sodium bicarbonate buffer at pH 9.6 and coated on Maxisorp (Nunc) microtiter plates overnight at 4° C., after which the microplate strips were washed 5 times with PBST (PBS/0.05% Tween-20) buffer and blocked with Superblock blocking reagent (ThermoFisher). Serial dilutions of biotinylated rhFc(gamma) receptor I (recombinant human Fc(gamma)R-I; R&D Systems) were prepared in PBST/10% Superblock buffer from 6000 ng/mL to 8.2 ng/mL and loaded at 100 μL/well onto the microplate strips coated with insulin-Fc fusion protein. The microtiter plate was incubated for 1 hour at room temperature after which the microplate strips were washed 5 times with PBST and then loaded with 100 μL/well of streptavidin-HRP diluted 1:10000 in PBST/10% Superblock buffer. After incubating for 45 min, the microplate strips were washed again 5 times with PBST. TMB was added to reveal the bound Fc(gamma) receptor I proteins and stopped with ELISA stop reagent (Boston Bioproducts). The plate was read in an ELISA plate reader at 450 nm, and the OD values (proportional to the binding of rhFc(gamma) receptor I to insulin-Fc protein) were plotted against log concentrations of rhFc(gamma) receptor I added to each well to generate binding curves using GraphPad Prism software.
# The insulin-Fc fusion protein of SEQ ID NO: 40 was synthesized in HEK293 cells according to the procedure of Example 1 and purified using a Protein A column according to Example 3. The structure of the insulin-Fc fusion protein was confirmed according to Example 4 by non-reducing and reducing CE-SDS, and the sequence was further identified by LC-MS with glycan removal according to Example 5. The protein yield was 174 mg/L at this stage. The % homodimer for the sequence was measured by size-exclusion chromatography according to Example 6 and was determined to be 98.9% resulting in a homodimer titer of 172 mg/L which meets the manufacturing design criteria.
# human insulin receptor [4] = target: T1, human insulin receptor; assay: competition with biotinylated RHI on IM-9 cells, flow cytometry, 4 C; remark: listed apart in the source
# biotinylated canine FcRn = biotinylated canine FcRn (canine, UniProt A0A8I3PFR8 25-347, biotinylated (site not stated)); assay: ELISA pH 5.5, fusion protein coated, biotinylated canine FcRn titrated
# Chain of biotinylated canine FcRn (A0A8I3PFR8 entry or part of it): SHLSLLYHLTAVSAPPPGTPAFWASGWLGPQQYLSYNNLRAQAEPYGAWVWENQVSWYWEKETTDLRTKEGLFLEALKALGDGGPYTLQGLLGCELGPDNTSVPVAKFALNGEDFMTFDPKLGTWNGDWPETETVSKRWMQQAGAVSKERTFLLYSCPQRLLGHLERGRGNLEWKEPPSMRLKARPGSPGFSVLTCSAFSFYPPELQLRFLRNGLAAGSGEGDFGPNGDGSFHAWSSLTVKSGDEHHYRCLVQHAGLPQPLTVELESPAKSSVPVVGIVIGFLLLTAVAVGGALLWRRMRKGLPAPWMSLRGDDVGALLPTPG
# Method: Insulin-Fc fusion proteins comprising Fc fragments of canine or feline origin were diluted to 10 μg/ml in sodium bicarbonate pH 9.6 buffer and coated in duplicate on Maxisorb ELISA plate strips for 1-2 hours at RT. The strips were then washed 4 times with PBST (PBS/0.1% Tween-20) buffer and blocked with Superblock blocking reagent (ThermoFisher). Strips for FcRn binding were then washed again twice with pH 5.5 MES/NaCl/Tween (50 mM MES/l50 mM NaCl/0.1% Tween-20) buffer before addition of the FcRn reagent (biotinylated canine FcRn; Immunitrack). […] Serial dilutions (1:3× dilutions) of biotinylated FcRn reagent were prepared in pH 5.5 MES/NaCl/Tween/10% Superblock buffer at concentrations from 1000 ng/ml to 0.45 ng/ml and loaded at 100 μL/well using a multichannel pipettor onto the strips coated with the insulin-Fc fusion protein compounds. The assay plate was then incubated for 1 hour at room temperature. FcRn binding strips were washed 4 times with pH 5.5 MES/NaCl/Tween buffer and then loaded with 100 μl/well […] diluted 1:10000 in pH 5.5 MES/NaCl/10% Superblock buffer. After incubating for 45 minutes, strips were washed again 4 times with pH 5.5 MES/NaCl/Tween buffer. TMB was finally added to reveal the bound biotinylated-canine FcRn reagent, and the color development was stopped with the ELISA stop reagent. The plate was read in an ELISA plate reader at a wavelength of 450 nm. The OD values (proportional to the binding of canine-FcRn to the insulin-Fc fusion protein test compounds) were plotted against log concentrations of FcRn added to each well to generate binding curves using GraphPad Prism software. EC50 values for each binding curve were calculated to compare between different compounds.
# [5] = target: T2, biotinylated recombinant human …; assay: ELISA, fusion protein coated, biotinylated rhFc(gamma)RI at 3000 ng/mL, pH 7.4
# Method: as §3
# Finally, select compounds were tested for their likelihood to interact with the immune system by measuring their Fc(gamma) receptor binding activity according to the procedure of Example 8. Table 19 compares the Fc(gamma) receptor I binding of these insulin-Fc fusion proteins with the Fc(gamma) receptor binding of the insulin-Fc fusion protein of SEQ ID NO: 52.
# human insulin receptor [6] = target: T1, human insulin receptor; assay: competition with biotinylated RHI on IM-9 cells, flow cytometry, 4 C; remark: listed apart in the source
# Method: Cultures of IM-9 cells were centrifuged at 250×g (˜1000 rpm) for 10 min to pellet the cells. Cells were washed once with HBSS or PBS buffer, resuspended in cold FACS staining medium (HBSS/2 mM EDTA/0.1% Na-azide+4% horse serum) to a concentration of 8×10⁶ cells/mL and kept on ice or 4° C. until test solutions were made. The insulin-Fc protein was diluted in FACS buffer in 1:3 serial dilutions as 2× concentrations in 1.2 mL tubes (approx. 60 μL volume of each dilution), and the solutions were kept cold on ice until ready for pipetting.
# 40 μL of an IM-9 cell suspension (8×10⁶ cells/mL) was then added to each well by multichannel pipette, mixed again gently and incubated on ice for 30 min to allow competitive binding on the insulin receptor on IM-9 cells. […]
# (§4) The V-bottom plates containing cells were then analyzed on a Guava 8-HT flow cytometer (Millipore). Biotinylated-RHI binding to insulin receptor was quantitated by the median fluorescence intensity (MFI) of the cells on the FACS FL-2 channel for each concentration of the test compound. […] The % inhibition by test compounds of biotinylated-RHI binding on IM-9 cells was plotted against log concentrations of the test compound, and the resulting IC50 values were calculated using GraphPad Prism (GraphPad Software, La Jolla, CA) for the test compounds.
# human insulin receptor [7] = target: T1, human insulin receptor; assay: as above; remark: listed apart in the source
# Method: as §1
# as §4, with “compounds. […]” for “compounds.”
binder,measurement,setting,value
B1,IC50,human insulin receptor [1],22 nM
same,IC50,human insulin receptor [2],22 nM
B2,binding result,[3],binds
same,IC50,human insulin receptor [4],2400 nM
same,EC50,biotinylated canine FcRn,1.55 µg/mL
B3,fold less Fc(gamma) receptor activity than SEQ ID NO: 38,[3],~4 fold less
same,IC50,human insulin receptor [4],4640 nM
same,EC50,biotinylated canine FcRn,8.16 µg/mL
B4,OD450 nm Minus Assay Background,[5],0.311 OD450
same,OD450 nm at a Fc(gamma)RI concentration of 3000 (ng/mL),[5],0.368 OD450
same,Ratio to SEQ ID NO: 52,[5],0.84 ratio
same,IC50,human insulin receptor [6],2340 nM
same,EC50,biotinylated canine FcRn,0.599 µg/mL
same,IC50,human insulin receptor [1],2340 nM
same,IC50,human insulin receptor [7],2340 nM
